Values belong to the binder of their own block, whether it stands above or below them.
Experiments:
Experiment in all cases: two-hybrid library CCNG1;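 note: natural log of median RNA to DNA barcode read ratio; higher means stronger binding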
P9SHb = target: T1, P9SHb
T1 chain: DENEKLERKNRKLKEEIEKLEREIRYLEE

P8SHb = target: T2, P8SHb
T2 chain: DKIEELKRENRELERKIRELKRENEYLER

P6SHb = target: T3, P6SHb
T3 chain: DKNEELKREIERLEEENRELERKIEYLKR

P7SHb = target: T4, P7SHb
T4 chain: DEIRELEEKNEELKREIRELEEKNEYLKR

4H568-bH = target: T5, 4H568-bH
T5 chain: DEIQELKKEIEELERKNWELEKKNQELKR

4H953-bH = target: T6, 4H953-bH
T6 chain: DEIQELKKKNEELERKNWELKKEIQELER

4H754-bH = target: T7, 4H754-bH
T7 chain: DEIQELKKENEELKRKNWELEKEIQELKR

4H3782-bH = target: T8, 4H3782-bH
T8 chain: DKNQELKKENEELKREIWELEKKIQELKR

4H967-bH = target: T9, 4H967-bH
T9 chain: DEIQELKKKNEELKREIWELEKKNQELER

4H3427-bH = target: T10, 4H3427-bH
T10 chain: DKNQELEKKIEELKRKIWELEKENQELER

4H4001-bH = target: T11, 4H4001-bH
T11 chain: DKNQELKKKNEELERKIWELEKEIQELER

4H3354-bH = target: T12, 4H3354-bH
T12 chain: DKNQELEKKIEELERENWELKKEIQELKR

4H883-bH = target: T13, 4H883-bH
T13 chain: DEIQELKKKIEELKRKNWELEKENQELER

4H338-bH = target: T14, 4H338-bH
T14 chain: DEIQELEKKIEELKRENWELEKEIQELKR

4H908-bH = target: T15, 4H908-bH
T15 chain: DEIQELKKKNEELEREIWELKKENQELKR

4H3855-bH = target: T16, 4H3855-bH
T16 chain: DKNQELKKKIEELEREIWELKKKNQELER

4H454-bH = target: T17, 4H454-bH
T17 chain: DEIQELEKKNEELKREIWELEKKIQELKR

4H717-bH = target: T18, 4H717-bH
T18 chain: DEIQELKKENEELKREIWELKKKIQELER

4H918-bH = target: T19, 4H918-bH
T19 chain: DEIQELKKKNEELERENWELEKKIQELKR

4H687-bH = target: T20, 4H687-bH
T20 chain: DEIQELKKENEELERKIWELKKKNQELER

4H496-bN = target: T21, 4H496-bN
T21 chain: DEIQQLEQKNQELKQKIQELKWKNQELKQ

4H797-bH = target: T22, 4H797-bH
T22 chain: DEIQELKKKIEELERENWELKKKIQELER

4H72-bH = target: T23, 4H72-bH
T23 chain: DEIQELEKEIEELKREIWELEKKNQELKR

4H607-bH = target: T24, 4H607-bH
T24 chain: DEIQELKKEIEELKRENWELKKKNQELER

interaction score (P9SHb): 0.769 | interaction score (P8SHb): 0.342 | interaction score (P6SHb): 0.147 | interaction score (P7SHb): 0.946
B1: P6SHb (peptide)
chain: DKNEELKREIERLEEENRELERKIEYLKR

interaction score (4H568-bH): -1.08 | interaction score (4H953-bH): -1.49 | interaction score (4H754-bH): -0.2 | interaction score (4H3782-bH): -0.062 | interaction score (4H967-bH): -0.105 | interaction score (4H3427-bH): 0.568 | interaction score (4H4001-bH): -0.37 | interaction score (4H3354-bH): 1.31 | interaction score (4H883-bH): -0.344 | interaction score (4H338-bH): 0.838 | interaction score (4H908-bH): -1.61 | interaction score (4H3855-bH): -0.383 | interaction score (4H454-bH): 0.274 | interaction score (4H717-bH): 0.648 | interaction score (4H918-bH): 0.89 | interaction score (4H687-bH): -2.6 | interaction score (4H496-bN): 0.755 | interaction score (4H797-bH): 0.357 | interaction score (4H72-bH): -1.11 | interaction score (4H607-bH): -1.77
B2: 4H3354-bH (peptide)
chain: DKNQELEKKIEELERENWELKKEIQELKR

interaction score (4H496-bN): -0.0824
B3: 4H496-bN (peptide)
chain: DEIQQLEQKNQELKQKIQELKWKNQELKQ
